# Experimental data taken from patent US20170321218A1, “FACTOR XIA-SPECIFIC APTAMERS” (CANADIAN BLOOD SERVICES, published 2017).
# B1: FELIAP 3'-biotin (ssDNA)
# DNA: GAATTCTAATACGACTCACTATAAACCTATCGGACTATTGTTAGTGATTTTTATAGTGTGCGTCCAACACATCG
# B2: FELIAP (Apt10-10) (ssDNA)
# DNA: B1 DNA
# Tests used:
# thrombin = thrombin (UniProt P00734); test: cell-based or functional assay
# Factor XIa (FXIa) [1] = target: T1, Factor XIa (FXIa) (UniProt P03951;P03951 P03951:19-387,P03951:388-625); test: SPR; ±0.1 nM; ka 5.2e4 M-1s-1, kd 9.5e-5 s-1; 100 mM HEPES pH 7.4, 150 mM NaCl, 0.01% Tween 20, 25 C; SCRAPT reference cell subtracted; conditions: chain copies: 2,2; label: 3'-biotin; predicted stem-loop hairpin with bulge and two small loops
# T1 sequence (P03951 19-387, chain 1 of 2): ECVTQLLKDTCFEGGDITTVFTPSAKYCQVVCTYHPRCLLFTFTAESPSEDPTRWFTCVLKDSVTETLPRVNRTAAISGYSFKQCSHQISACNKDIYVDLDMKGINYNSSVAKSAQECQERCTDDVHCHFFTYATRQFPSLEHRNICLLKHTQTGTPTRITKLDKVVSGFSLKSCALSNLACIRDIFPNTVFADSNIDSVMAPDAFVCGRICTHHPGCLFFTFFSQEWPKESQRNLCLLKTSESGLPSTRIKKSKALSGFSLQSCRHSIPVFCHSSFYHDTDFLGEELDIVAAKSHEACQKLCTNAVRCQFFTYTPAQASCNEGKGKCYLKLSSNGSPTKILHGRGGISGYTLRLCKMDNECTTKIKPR
# T1 sequence (P03951 388-625, chain 2 of 2): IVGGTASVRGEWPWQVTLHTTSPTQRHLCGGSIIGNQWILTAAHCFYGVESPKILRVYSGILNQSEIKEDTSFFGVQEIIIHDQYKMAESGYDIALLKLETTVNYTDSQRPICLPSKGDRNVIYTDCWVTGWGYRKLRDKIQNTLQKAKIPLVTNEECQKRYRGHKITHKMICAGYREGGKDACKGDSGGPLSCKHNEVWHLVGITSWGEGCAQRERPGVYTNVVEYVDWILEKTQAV
# Protocol: Kinetic measurements of aptamer binding were analyzed by SPR on a Biacore T200 (GE Healthcare). To immobilize the aptamer, a CM5 sensor chip (GE Healthcare) was activated with a 0.2 M N-ethyl-N′-(dimethylamino-propyl) carbodiimide (EDC) and 0.05 M N-hydroxysuccinimide (NHS) (Sigma) solution, followed by binding of streptavidin (0.2 mg/ml, pH 4.5). FELIAP and SCRAPT (3′ biotinylated) in 100 mM HEPES (pH 7.4), 150 mM NaCl, 0.01% Tween 20 were immobilized on the streptavidin-coated chips at a flow rate of 10 μL/min to 100 response units (RU). Flow cells were regenerated with 0.2% SDS (w/vol). FXIa at concentrations varying from 15.671 nM to 500 nM was injected at a flow rate of 50 μl/min for 180 s to monitor association, and HEPES buffer for 1800 s to monitor dissociation. The signal from the SCRAPT-immobilized flow cell was used as a reference and subtracted from the signal arising from FXIa binding to the FELIAP-immobilized cell. Binding of FXIa and aptamer was quantified by global analysis of on and off rates using the Langmuir 1:1 binding model, as determined with the instrument's software provided by the manufacturer (Biacore). All experiments were done in triplicate.
# Factor XIa (FXIa) [2] = target: T1, Factor XIa (FXIa); test: inhibition; competitive inhibition of S2366 amidolysis; PPNE pH 7.4, 37 C; conditions: chain copies: 2,2; predicted stem-loop hairpin with bulge and two small loops
# Protocol: The mode of inhibition of FELIAP was investigated by fixing the concentrations of chromogenic substrate and FXIa and increasing the concentration of FELIAP and measuring the rate of substrate cleavage. A dose-dependent reduction in the reaction rate was observed as FELIAP was increased from 0 to 20 μM, while the same concentrations of SCRAPT had no inhibitory effect (FIG. 2A). Next, the concentration of chromogenic substrate S2366 was varied while keeping FXIa constant at different concentrations of FELIAP (FIG. 2B).
molecule,measurement,setting,value
recombinant His-tagged hirudin variant 3,"thrombin generation assay, FXI-depleted plasma with tissue factor: time to peak thrombin",thrombin,3.1 fold
B1,Kd,Factor XIa (FXIa) [1],0.0018 µM
B2,Ki,Factor XIa (FXIa) [2],29 µM
